Source: US20230365675A1 (published 2023)

B1: sdCD33_4 (VHH)
VHH: QVKLEESGGGSVQAGESLRLSCTASGITFRDYDIDWYRQAPGKEREWLATITPSGTTHYPDSVKGRATISRDSAKNTVYLQMNSLKPEDTARYECNTLAYWGSGTQVTVSS
B2: sdCD33_2 (VHH)
VHH: QVQLVQPGGSLRLFCVASEEFFSIYAMGWYRQAPGKQHEMVARFTRDGKITYADSAKGRFTITRDAKNTLNLQMNGLIPEDTAVYYCNINHYWGQGTQVTVSS
B3: sdCD33_10 (VHH)
VHH: QVQLVETGGGLVRAGGSLRLSCAASGRTADIYNIGWFRQAPGKEREFVAAITWIGRTPYYADAVKGRFAFSTDSAKNTVSLQMDNLKPEDTGVYYCNAAHYLEGNTDYYWGQGTQVTVSS
B4: sdCD33_3 (VHH)
VHH: DVQLVESGGGLVQPGGSLRLSCSVSGNIDRFYAMGWYRQAPGKQRELVAQLTNNEITTYGDSVEGQFSISGDFDANTVYLQMDSLKPEDTAVYYCHAHVTTTRWSQDYYWGQGTRVTVSS
B5: Anti-CD33 CAR 6 (other)
chain: QVQLVETGGGLVRAGGSLRLSCAASGRTADIYNIGWFRQAPGKEREFVAAITWIGRTPYYADAVKGRFAFSTDSAKNTVSLQMDNLKPEDTGVYYCNAAHYLEGNTDYYWGQGTQVTVSSAAATTTPAPRPPTPAPTIASQPLSLRPEACRPAAGGAVHTRGLDFACDIYIWAPLAGTCGVLLLSLVITLYCKRGRKKLLYIFKQPFMRPVQTTQEEDGCSCRFPEEEEGGCELRVKFSRSADAPAYQQGQNQLYNELNLGRREEYDVLDKRRGRDPEMGGKPRRKNPQEGLYNELQKDKMAEAYSEIGMKGERRRGKGHDGLYQGLSTATKDTYDALHMQALPPR

The molecules below were run against CD33-GFP fusion protein, wild type (WT), on 293FT cells (UniProt P20138) (assay: FACS, WT CD33-GFP on 293FT cells).
Sequence of CD33-GFP fusion protein, wild type (WT), on 293FT cells (P20138 18-364): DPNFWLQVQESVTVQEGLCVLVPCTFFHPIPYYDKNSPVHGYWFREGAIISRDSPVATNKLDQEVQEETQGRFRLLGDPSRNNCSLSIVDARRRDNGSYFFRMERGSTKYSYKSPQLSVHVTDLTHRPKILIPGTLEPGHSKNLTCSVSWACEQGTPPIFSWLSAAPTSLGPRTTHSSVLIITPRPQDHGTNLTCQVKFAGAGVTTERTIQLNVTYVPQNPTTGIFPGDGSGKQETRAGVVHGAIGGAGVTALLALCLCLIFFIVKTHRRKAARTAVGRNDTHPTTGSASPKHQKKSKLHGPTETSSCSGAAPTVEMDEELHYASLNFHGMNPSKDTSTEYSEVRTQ

Row | FACS binding data | Molecule
1 | 97.8 | hu195 (antibody)
2 | 98.4 | B1
3 | 98.3 | B2
4 | 98 | B3
5 | 98.3 | B4

What follows are molecules tested against CD33 on MOLM-13 cells (human, UniProt P20138 18-364) (assay: cell-based or functional assay).
Sequence of CD33 on MOLM-13 cells (P20138 18-364): as above

Row | Ratio | Testing FP2 Expression (CD33+) | Molecule
6 | 3.6 | 22.9 % of constitutive-fluorescence-positive cells | B5

What follows are molecules tested against Mutant CD33-GFP JS23 (L23N) on 293FT cells (UniProt P20138) (assay: FACS, mutant CD33-GFP on 293FT cells).
Sequence of Mutant CD33-GFP JS23 (L23N) on 293FT cells (P20138 18-364 L23N): as the sequence (P20138 18-364) above, with L6N counted along it

Row | FACS binding data | Molecule
7 | 99 | B1
8 | 95.4 | B2
9 | 98.4 | B3
10 | 99.1 | B4

What follows are molecules tested against Mutant CD33-GFP JS24 (Q24E) on 293FT cells (UniProt P20138) (assay: FACS, mutant CD33-GFP on 293FT cells).
Sequence of Mutant CD33-GFP JS24 (Q24E) on 293FT cells (P20138 18-364 Q24E): as the sequence (P20138 18-364) above, with Q7E counted along it

Row | FACS binding data | Molecule
11 | 99.3 | B1
12 | 98.8 | B2
13 | 98.2 | B3
14 | 99.4 | B4

Each molecule was assayed against Mutant CD33-GFP JS25 (V25M) on 293FT cells (UniProt P20138) (assay: FACS, mutant CD33-GFP on 293FT cells).
Sequence of Mutant CD33-GFP JS25 (V25M) on 293FT cells (P20138 18-364 V25M): as the sequence (P20138 18-364) above, with V8M counted along it

Row | FACS binding data | Molecule
15 | 99.5 | B1
16 | 99.3 | B2
17 | 99.6 | B3
18 | 99.7 | B4

Each molecule was assayed against Mutant CD33-GFP JS28 (S28L) on 293FT cells (UniProt P20138) (assay: FACS, mutant CD33-GFP on 293FT cells).
Sequence of Mutant CD33-GFP JS28 (S28L) on 293FT cells (P20138 18-364 S28L): as the sequence (P20138 18-364) above, with S11L counted along it

Row | FACS binding data | Molecule
19 | 99.6 | B1
20 | 99.5 | B2
21 | 99.6 | B3
22 | 99.6 | B4

Each molecule was assayed against Mutant CD33-GFP M10 (Y127A) on 293FT cells (UniProt P20138) (assay: FACS, mutant CD33-GFP on 293FT cells).
Sequence of Mutant CD33-GFP M10 (Y127A) on 293FT cells (P20138 18-364 Y127A): as the sequence (P20138 18-364) above, with Y110A counted along it

Row | FACS binding data | Molecule
23 | 97.2 | B1
24 | 98.5 | B2
25 | 93.9 | B3
26 | 96.3 | B4

What follows are molecules tested against Mutant CD33-GFP M11 (L78T) on 293FT cells (UniProt P20138) (assay: FACS, mutant CD33-GFP on 293FT cells).
Sequence of Mutant CD33-GFP M11 (L78T) on 293FT cells (P20138 18-364 L78T): as the sequence (P20138 18-364) above, with L61T counted along it

Row | FACS binding data | Molecule
27 | 62.8 | B1
28 | 33.4 | B2
29 | 67.3 | B3
30 | 78 | B4

Each molecule was assayed against Mutant CD33-GFP M12 (G88S) on 293FT cells (UniProt P20138) (assay: FACS, mutant CD33-GFP on 293FT cells).
Sequence of Mutant CD33-GFP M12 (G88S) on 293FT cells (P20138 18-364 G88S): as the sequence (P20138 18-364) above, with G71S counted along it

Row | FACS binding data | Molecule
31 | 99 | B1
32 | 98.2 | B2
33 | 98.6 | B3
34 | 99 | B4

Each molecule was assayed against Mutant CD33-GFP M13 (R91E) on 293FT cells (UniProt P20138) (assay: FACS, mutant CD33-GFP on 293FT cells).
Sequence of Mutant CD33-GFP M13 (R91E) on 293FT cells (P20138 18-364 R91E): as the sequence (P20138 18-364) above, with R74E counted along it

Row | FACS binding data | Molecule
35 | 99.1 | B1
36 | 98.6 | B2
37 | 98.5 | B3
38 | 98.7 | B4

The molecules below were run against Mutant CD33-GFP M14 (E170R) on 293FT cells (UniProt P20138) (assay: FACS, mutant CD33-GFP on 293FT cells).
Sequence of Mutant CD33-GFP M14 (E170R) on 293FT cells (P20138 18-364 E170R): as the sequence (P20138 18-364) above, with E153R counted along it

Row | FACS binding data | Molecule
39 | 98.8 | B1
40 | 98.2 | B2
41 | 98.4 | B3
42 | 98.7 | B4

These molecules were tested against Mutant CD33-GFP M15 (Q171A) on 293FT cells (UniProt P20138) (assay: FACS, mutant CD33-GFP on 293FT cells).
Sequence of Mutant CD33-GFP M15 (Q171A) on 293FT cells (P20138 18-364 Q171A): as the sequence (P20138 18-364) above, with Q154A counted along it

Row | FACS binding data | Molecule
43 | 98.8 | B1
44 | 98.7 | B2
45 | 98.9 | B3
46 | 98.2 | B4

These molecules were tested against Mutant CD33-GFP M16 (4889AII) on 293FT cells (UniProt P20138) (assay: FACS, mutant CD33-GFP on 293FT cells).

Row | FACS binding data | Molecule
47 | 98.7 | B1
48 | 98.4 | B2
49 | 98.6 | B3
50 | 98.4 | B4

What follows are molecules tested against Mutant CD33-GFP M17 (F21Y) on 293FT cells (UniProt P20138) (assay: FACS, mutant CD33-GFP on 293FT cells).
Sequence of Mutant CD33-GFP M17 (F21Y) on 293FT cells (P20138 18-364 F21Y): as the sequence (P20138 18-364) above, with F4Y counted along it

Row | FACS binding data | Molecule
51 | 98.5 | B1
52 | 98.9 | B2
53 | 94.1 | B3
54 | 98.2 | B4

What follows are molecules tested against Mutant CD33-GFP M18 (353AAL) on 293FT cells (UniProt P20138) (assay: FACS, mutant CD33-GFP on 293FT cells).

Row | FACS binding data | Molecule
55 | 99.5 | B1
56 | 97.3 | B2
57 | 15.6 | B3
58 | 99 | B4

The molecules below were run against Mutant CD33-GFP M19 (348ATAI) on 293FT cells (UniProt P20138) (assay: FACS, mutant CD33-GFP on 293FT cells).

Row | FACS binding data | Molecule
59 | 99.6 | B1
60 | 99 | B2
61 | 98.3 | B3
62 | 99.6 | B4

What follows are molecules tested against Mutant CD33-GFP M4 (R122D) on 293FT cells (UniProt P20138) (assay: FACS, mutant CD33-GFP on 293FT cells).
Sequence of Mutant CD33-GFP M4 (R122D) on 293FT cells (P20138 18-364 R122D): as the sequence (P20138 18-364) above, with R105D counted along it

Row | FACS binding data | Molecule
63 | 6.01 | B1
64 | 1.43 | B2
65 | 21.1 | B3
66 | 98.5 | B4

The molecules below were run against Mutant CD33-GFP M5 (AEAD), quadruple mutant, on 293FT cells (UniProt P20138) (assay: FACS, mutant CD33-GFP on 293FT cells).
Sequence of Mutant CD33-GFP M5 (AEAD), quadruple mutant, on 293FT cells (P20138 other isoform, or with tags, fused parts or gaps mutant): as the sequence (P20138 18-364) above, with W5A, H28E, N82A, R105D counted along it

Row | FACS binding data | Molecule
67 | 0.16 | B1
68 | 0.41 | B2
69 | 0.12 | B3
70 | 0.31 | B4

What follows are molecules tested against Mutant CD33-GFP M9 (Y49, 50A) on 293FT cells (UniProt P20138) (assay: FACS, mutant CD33-GFP on 293FT cells).
Sequence of Mutant CD33-GFP M9 (Y49, 50A) on 293FT cells (P20138 other isoform, or with tags, fused parts or gaps mutant): as the sequence (P20138 18-364) above, with Y32A, Y33A counted along it

Row | FACS binding data | Molecule
71 | 97.4 | B1
72 | 0.39 | B2
73 | 0.22 | B3
74 | 0.64 | B4

The molecules below were run against Mutant CD33-GFP N20D on 293FT cells (UniProt P20138) (assay: FACS, mutant CD33-GFP on 293FT cells).
Sequence of Mutant CD33-GFP N20D on 293FT cells (P20138 18-364 N20D): as the sequence (P20138 18-364) above, with N3D counted along it

Row | FACS binding data | Molecule
75 | 98.5 | B1
76 | 98.9 | B2
77 | 96.6 | B3
78 | 98.7 | B4

What follows are molecules tested against T1, Mutant CD33-GFP M1 (W22A) on 293FT cells (UniProt P20138 18-364) (assay: FACS, mutant CD33-GFP on 293FT cells).
T1 construct: whole, on cells; not shown: GFP fused to CD33
T1 sequence (P20138 18-364 W22A): as the sequence (P20138 18-364) above, with W5A counted along it

Row | FACS binding data | Molecule
79 | 99.3 | B1
80 | 8.08 | B2
81 | 99.1 | B3
82 | 99.4 | B4

Each molecule was assayed against T2, Mutant CD33-GFP M2 (H45E) on 293FT cells (UniProt P20138 18-364) (assay: FACS, mutant CD33-GFP on 293FT cells).
T2 construct: whole, on cells; not shown: GFP fused to CD33
T2 sequence (P20138 18-364 H45E): as the sequence (P20138 18-364) above, with H28E counted along it

Row | FACS binding data | Molecule
83 | 84.4 | B1
84 | 2.54 | B2
85 | 65.5 | B3
86 | 98.8 | B4

These molecules were tested against T3, Mutant CD33-GFP M3 (N99A) on 293FT cells (UniProt P20138 18-364) (assay: FACS, mutant CD33-GFP on 293FT cells).
T3 construct: whole, on cells; not shown: GFP fused to CD33
T3 sequence (P20138 18-364 N99A): as the sequence (P20138 18-364) above, with N82A counted along it

Row | FACS binding data | Molecule
87 | 97 | B1
88 | 81.9 | B2
89 | 99 | B3
90 | 99.4 | B4

The molecules below were run against T4, Mutant CD33-GFP M6 (F43N) on 293FT cells (UniProt P20138 18-364) (assay: FACS, mutant CD33-GFP on 293FT cells).
T4 construct: whole, on cells; not shown: GFP fused to CD33
T4 sequence (P20138 18-364 F43N): as the sequence (P20138 18-364) above, with F26N counted along it

Row | FACS binding data | Molecule
91 | 98.3 | B1
92 | 95.3 | B2
93 | 97.6 | B3
94 | 99 | B4

Each molecule was assayed against T5, Mutant CD33-GFP M7 (R98D) on 293FT cells (UniProt P20138 18-364) (assay: FACS, mutant CD33-GFP on 293FT cells).
T5 construct: whole, on cells; not shown: GFP fused to CD33
T5 sequence (P20138 18-364 R98D): as the sequence (P20138 18-364) above, with R81D counted along it

Row | FACS binding data | Molecule
95 | 21.5 | B1
96 | 0.48 | B2
97 | 97.1 | B3
98 | 98.8 | B4

These molecules were tested against T6, Mutant CD33-GFP M8 (K52A) on 293FT cells (UniProt P20138 18-364) (assay: FACS, mutant CD33-GFP on 293FT cells).
T6 construct: whole, on cells; not shown: GFP fused to CD33
T6 sequence (P20138 18-364 K52A): as the sequence (P20138 18-364) above, with K35A counted along it

Row | FACS binding data | Molecule
99 | 0.15 | B1
100 | 91.2 | B2
101 | 66.1 | B3
102 | 97.3 | B4

What follows are molecules tested against Biotinylated CD33 protein (UniProt P20138) (assay: Octet competition on biotinylated CD33; competitor 348).
Sequence of Biotinylated CD33 protein (P20138 18-259 limits assumed): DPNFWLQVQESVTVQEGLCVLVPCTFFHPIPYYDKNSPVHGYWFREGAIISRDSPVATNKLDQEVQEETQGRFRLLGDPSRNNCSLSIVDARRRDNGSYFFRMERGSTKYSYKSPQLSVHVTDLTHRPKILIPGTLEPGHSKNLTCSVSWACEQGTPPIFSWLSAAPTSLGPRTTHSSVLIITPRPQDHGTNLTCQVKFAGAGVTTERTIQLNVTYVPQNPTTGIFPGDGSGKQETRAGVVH

Row | Octet signal | Molecule
103 | -0.146 | B1
104 | 0.616 | B3
105 | 0.0077 | B4

Each molecule was assayed against Biotinylated CD33 protein (UniProt P20138) (assay: Octet competition on biotinylated CD33; competitor 353).

Row | Octet signal | Molecule
106 | -0.101 | B1
107 | 0.322 | B2
108 | 1.01 | B3

What follows are molecules tested against Biotinylated CD33 protein (UniProt P20138) (assay: Octet competition on biotinylated CD33; competitor 389).

Row | Octet signal | Molecule
109 | 0.584 | B2
110 | 1.16 | B3
111 | 0.152 | B4

What follows are molecules tested against Biotinylated CD33 protein (UniProt P20138) (assay: Octet competition on biotinylated CD33; competitor 413).

Row | Octet signal | Molecule
112 | -0.0267 | B1
113 | 0.623 | B2
114 | 0.865 | B3
115 | 0.0204 | B4

What follows are molecules tested against Biotinylated CD33 protein (UniProt P20138) (assay: Octet competition on biotinylated CD33; competitor 416).

Row | Octet signal | Molecule
116 | -0.28 | B1
117 | 0.0635 | B2
118 | 0.552 | B3
119 | -0.0696 | B4

The molecules below were run against Biotinylated CD33 protein (UniProt P20138) (assay: Octet competition on biotinylated CD33; competitor 420).

Row | Octet signal | Molecule
120 | -0.0649 | B1
121 | 0.381 | B2
122 | 0.95 | B3
123 | -0.0387 | B4

The molecules below were run against Biotinylated CD33 protein (UniProt P20138) (assay: Octet competition on biotinylated CD33; competitor 424).

Row | Octet signal | Molecule
124 | -0.271 | B1
125 | 0.0143 | B2
126 | 0.628 | B3
127 | -0.108 | B4

Each molecule was assayed against Biotinylated CD33 protein (UniProt P20138) (assay: Octet competition on biotinylated CD33; competitor 426).

Row | Octet signal | Molecule
128 | -0.137 | B1
129 | 0.158 | B2
130 | 0.543 | B3
131 | -0.0122 | B4

Each molecule was assayed against Biotinylated CD33 protein (UniProt P20138) (assay: Octet competition on biotinylated CD33; competitor 429).

Row | Octet signal | Molecule
132 | -0.26 | B1
133 | 0.0422 | B2
134 | -0.13 | B4

What follows are molecules tested against Biotinylated CD33 protein (UniProt P20138) (assay: Octet competition on biotinylated CD33; competitor 430).

Row | Octet signal | Molecule
135 | 0.0905 | B1
136 | 0.651 | B2
137 | 1.44 | B3
138 | 0.231 | B4

What follows are molecules tested against Biotinylated CD33 protein (UniProt P20138) (assay: Octet competition on biotinylated CD33; competitor h195).

Row | Octet signal | Molecule
139 | 0.355 | B1
140 | 0.799 | B2
141 | 1.37 | B3
142 | 0.295 | B4
